Data reported in PMC4275594 (Nature Communications, 2014).

What was measured:
Conditions in all cases: both partners purified
[1] = target: T1, preformed binary complex of IL-18 wild type and un-tagged IL-18Rα N236Q extracellular domain (human, UniProt Q14116 37-193; Q13478 20-329, N236Q); assay: SPR; BIAcore 3000, 25 °C; C-terminal 6xHis IL-18Rβ (wild type or mutant) immobilised at about 100 RU on a Ni-NTA sensor chip; un-tagged IL-18Rα saturated with 500 nM IL-18 (preformed binary complex) injected as analyte in HBS-P; triplicate
T1 construct: interleukin-18, human, mature IL-18 (residues 1-157); numbers count on: the mature protein; IL-18 receptor alpha, human, extracellular domains, residues 20-329 of NM_003855; lacks the N-linked sugar chain on N236; also called IL-18WT/IL-18Rα mutant complex; IL18/IL18Rα-N236Q; source: IL-18: E. coli BL21(DE3), purified; IL-18Rα: silkworm larvae haemolymph, purified; un-tagged IL-18Rα saturated …

[2] = target: T2, preformed binary complex of IL-18 wild type and un-tagged IL-18Rα wild type extracellular domain (human, UniProt Q14116 37-193; Q13478 20-329); assay: as above
T2 construct: interleukin-18, human, mature IL-18 (residues 1-157); numbers count on: the mature protein; IL-18 receptor alpha, human, extracellular domains, residues 20-329 of NM_003855; also called IL-18 WT/IL-18Rα WT complex; IL-18/IL-18Rα; source: IL-18: E. coli BL21(DE3), purified; IL-18Rα: silkworm larvae haemolymph, purified; un-tagged IL-18Rα saturated with 500 nM IL-18

[3] = target: T3, IL-18WT/IL-18Rα N236Q complex (SPR analyte) (human, UniProt Q14116 37-193; Q13478 20-329, N236Q); assay: SPR; BIAcore 3000, 25 °C, C-terminal 6xHis IL-18Rβ immobilised (~100 RU) on an NTA sensor chip, un-tagged IL-18Rα saturated with 500 nM IL-18 as analyte in HBS-P
T3 construct: human interleukin-18, mature IL-18 (residues 1-157); numbers count on: the mature protein; human IL-18 receptor α, extracellular domains, residues 20-329 of NM_003855, used instead of the un-tagged wild type; The mutation removes the N-linked sugar chain at Asn236; also called N236Q^Rα; source: IL-18: E. coli BL21(DE3), purified; IL-18Rα mutant: silkworm larvae haemolymph, purified; IL-18Rα …

[4] = target: T4, IL-18 WT/IL-18Rα WT complex (SPR analyte) (human, UniProt Q14116 37-193; Q13478 20-329); assay: as above
T4 construct: human interleukin-18, mature IL-18 (residues 1-157); numbers count on: the mature protein; human IL-18 receptor α, extracellular domains, residues 20-329 of NM_003855, printed as un-tagged; also called IL-18/IL-18Rα binary complex; IL-18 WT(control); source: IL-18: E. coli BL21(DE3), purified; IL-18Rα: silkworm larvae haemolymph, purified; un-tagged IL-18Rα saturated with 500 nM IL-18

[5] = target: T5, IL-18 receptor β extracellular domains (residues 15-356), construct for crystallography (human, UniProt O95256-1 15-356); assay: crystal structure; IL-18/IL-18Rα/IL-18Rβ ternary complex, 3.10 Å, one copy in the asymmetric unit, data at 100 K (PDB 3WO4)
T5 construct: human IL-18 receptor β, extracellular domains, residues 15-356 of NM_003853; also called IL-18Rβ; source: Sf9 insect cells, secreted, purified (ion exchange, Ni-NTA, gel filtration with or without HRV 3C treatment)
T5 sequence (looked up): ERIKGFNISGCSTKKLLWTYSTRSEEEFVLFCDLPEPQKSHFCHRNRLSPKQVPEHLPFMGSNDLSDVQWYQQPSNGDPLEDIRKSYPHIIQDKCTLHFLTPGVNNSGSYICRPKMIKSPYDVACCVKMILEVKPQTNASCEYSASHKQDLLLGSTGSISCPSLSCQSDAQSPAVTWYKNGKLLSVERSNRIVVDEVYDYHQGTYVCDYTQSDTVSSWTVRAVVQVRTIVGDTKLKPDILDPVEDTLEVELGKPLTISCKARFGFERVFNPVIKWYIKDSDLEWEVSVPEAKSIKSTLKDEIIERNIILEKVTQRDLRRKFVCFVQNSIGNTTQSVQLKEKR

B1: human IL-18 receptor beta extracellular domain (residues 15-356), C-terminal 6xHis, wild type, from silkworm (receptor, UniProt O95256-1 15-356, looked up)
chain: ERIKGFNISGCSTKKLLWTYSTRSEEEFVLFCDLPEPQKSHFCHRNRLSPKQVPEHLPFMGSNDLSDVQWYQQPSNGDPLEDIRKSYPHIIQDKCTLHFLTPGVNNSGSYICRPKMIKSPYDVACCVKMILEVKPQTNASCEYSASHKQDLLLGSTGSISCPSLSCQSDAQSPAVTWYKNGKLLSVERSNRIVVDEVYDYHQGTYVCDYTQSDTVSSWTVRAVVQVRTIVGDTKLKPDILDPVEDTLEVELGKPLTISCKARFGFERVFNPVIKWYIKDSDLEWEVSVPEAKSIKSTLKDEIIERNIILEKVTQRDLRRKFVCFVQNSIGNTTQSVQLKEKR
notes: IL-18 receptor beta, human, extracellular domains, residues 15-356 of NM_003853; also called IL-18Rβ; IL-18Rβ WT; source: silkworm (B. mori) larvae, BmNPV bacmid, haemolymph, purified (ion exchange, Ni-NTA, gel filtration); not shown: 6xHis, C-terminal, kept
kon [1]: 12000 M⁻¹ s⁻¹
kon [2]: 11000 M⁻¹ s⁻¹

B2: C-terminal 6xHis tagged IL-18Rβ extracellular domains (residues 15-356), for SPR (domain or fragment, human, UniProt O95256-1 15-356, looked up)
chain: ERIKGFNISGCSTKKLLWTYSTRSEEEFVLFCDLPEPQKSHFCHRNRLSPKQVPEHLPFMGSNDLSDVQWYQQPSNGDPLEDIRKSYPHIIQDKCTLHFLTPGVNNSGSYICRPKMIKSPYDVACCVKMILEVKPQTNASCEYSASHKQDLLLGSTGSISCPSLSCQSDAQSPAVTWYKNGKLLSVERSNRIVVDEVYDYHQGTYVCDYTQSDTVSSWTVRAVVQVRTIVGDTKLKPDILDPVEDTLEVELGKPLTISCKARFGFERVFNPVIKWYIKDSDLEWEVSVPEAKSIKSTLKDEIIERNIILEKVTQRDLRRKFVCFVQNSIGNTTQSVQLKEKR
notes: human IL-18 receptor β, extracellular domains, residues 15-356 of NM_003853; also called IL-18Rβ WT; IL-18Rβ WT (control); source: silkworm (B. mori) larvae, BmNPV bacmid, haemolymph, purified as from Sf9; not shown: 6xHis, C-terminal, kept
Kd [3]: 17 nM
Kd [4]: 15 nM

B3: IL-18 receptor α extracellular domains (residues 20-329), construct for crystallography (domain or fragment, human, UniProt Q13478 20-329, looked up)
chain: ESCTSRPHITVVEGEPFYLKHCSCSLAHEIETTTKSWYKSSGSQEHVELNPRSSSRIALHDCVLEFWPVELNDTGSYFFQMKNYTQKWKLNVIRRNKHSCFTERQVTSKIVEVKKFFQITCENSYYQTLVNSTSLYKNCKKLLLENNKNPTIKKNAEFEDQGYYSCVHFLHHNGKLFNITKTFNITIVEDRSNIVPVLLGPKLNHVAVELGKNVRLNCSALLNEEDVIYWMFGEENGSDPNIHEEKEMRIMTPEGKWHASKVLRIENIGESNLNVLYNCTVASTGGTDTKSFILVRKADMADIPGHVFTR
modifications: N-linked glycosyl chains at Asn91, 102, 150, 197, 203, 236 and 297 (high-mannose glycans, Sf9)
notes: human IL-18 receptor α, extracellular domains, residues 20-329 of NM_003855; also called IL-18Rα; source: Sf9 insect cells, secreted, purified (ion exchange, Ni-NTA, gel filtration with or without HRV 3C treatment)
binding result [5]: binds
